The target in the experiment is T1, NaPI-insensitive chymotrypsin from H. punctigera (HpCh5), native enzyme from the larval gut (Helicoverpa punctigera).
T1 construct: also called NaPI-insensitive protease; Rech1a
In words: affinity column of immobilized recombinant C1, trypsin-depleted gut extract passed through. On the procedure:
The midgut was dissected from 80 fourth instar larvae and buffer soluble extracts were prepared. The gut extract was depleted of trypsins by repeated passage through a benzamidine-Sepharose affinity column. […] This column was expected to specifically bind NaPI-sensitive chymotrysins.
The filtered gut extract was passed through the benzamidine column five times to remove the trypsins.

Here are results for one molecule from US20090188010A1 (HEXIMA, published 2009).

T1 sequence (chain, as listed by the source limits assumed): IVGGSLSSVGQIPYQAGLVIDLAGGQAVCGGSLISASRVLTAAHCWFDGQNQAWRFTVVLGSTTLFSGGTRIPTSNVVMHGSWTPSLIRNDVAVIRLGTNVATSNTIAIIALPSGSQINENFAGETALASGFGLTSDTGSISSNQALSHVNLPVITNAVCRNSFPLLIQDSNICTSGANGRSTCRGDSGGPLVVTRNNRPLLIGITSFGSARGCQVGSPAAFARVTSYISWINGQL

B1: recombinant C1 inhibitor with N-terminal hexahistidine tag, expressed in E. coli (other)
chain: DRICTNCCAGTKGCKYFSDDGTFVCEGESDPRNPKACTLNCDPRIAYGVCPRSEEKKN
notes: also called 6H.C1; not shown: hexahistidine tag at the N-terminus from the pQE-30 vector
Consider B1, for which the binding result was “no binding”.
